Reference: patent US5262522A, “Receptor for oncostatin M and leukemia inhibitory factor” (Immunex Corporation, priority 1991, dated 1993)

B1: LIF-R: human leukemia inhibitory factor receptor fragment encoded by cDNA clone pHLIFR-65 (SEQ ID NO: 6), expressed on COS-7 cells (protein)
chain: QKKGAPHDLKCVTNNLQVWNCSWKAPSGTGRGTDYEVCIENRSRSCYQLEKTSIKIPALSHGDYEITINSLHDFGSSTSKFTLNEQNVSLIPDTPEILNLSADFSTSTLYLKWNDRGSVFPHRSNVIWEIKVLRKESMELVKLVTHNTTLNGKDTLHHWSWASDMPLECAIHFVEIRCYIDNLHFSGLEEWSDWSPVKNISWIPDSQTKVFPQDKVILVGSDITFCCVSQEKVLSALIGHTNCPLIHLDGENVAIKIRNISVSASSGTNVVFTTEDNIFGTVIFAGYPPDTPQQLNCETHDLKEIICSWNPGRVTALVGPRATSYTLVESFSGKYVRLKRAEAPTNESYQLLFQMLPNQEIYNFTLNAHNPLGRSQSTILVNITEKVYPHTPTSFKVKDINSTAVKLSWHLPGNFAKINFLCEIEIKKSNSVQEQRNVTIKGVENSSYLVALDKLNPYTLYTFRIRCSTETFWKWSKWSNKKQHLTTEASPSKGPDTWREWSSDGKNLIIYWKPLPINEANGKILSYNVSCSSDEETQSLSEIPDPQHKAEIRLDKNDYIISVVAKNSVGSSPPSKIASMEIPNDDLKIEQVVGMGKGILLTWHYDPNMTCDYVIKWCNSSRSEPCLMDWRKVPSNSTETVIESDEFRPGIRYNFFLYGCRNQGYQLLRSMIGYIEELAPIVAPNFTVEDTSADSILVKWEDIPVEELRGFLRGYLFYFGKGERDTSKMRVLESGRSDIKVKNITDISQKTLRIADLQGKTSYHLVLRAYTDGGVGPEKSMYVVTKENSVGLIIAILIPVAVAVIVGVVTSILCYRKREWIKETFYPDIPNPENCKALQFQKSVCEGSSALKTLEMNPCTPNNVEVLETRSAFPKIEDTEIISPVAERPEDRSDAEPENHVVVSYCPPIIEEEIPNPAADEAGGTAQVIYIDVQSMYQPQAKPEEKKKKSRSSRSKI
B2: gp130: truncated human gp130 polypeptide encoded by plasmid B10G (SEQ ID NO: 2), expressed on COS-7 cells (protein)
chain: ELLDPCGYISPESPVVQLHSNFTAVCVLKEKCMDYFHVNANYIVWKTNHFTIPKEQYTIINRTASSVTFTDIASLNIQLTCNILTFGQLEQNVYGITIISGLPPEKPKNLSCIVNEGKKMRCEWDGGRETHLETNFTLKSEWATHKFADCKAKRDTPTSCTVDYSTVYFVNIEVWVEAENALGKVTSDHINFDPVYKVKPNPPHNLSVINSEELSSILKLTWTNPSIKSVIILKYNIQYRTKDASTWSQIPPEDTASTRSSFTVQDLKPFTEYVFRIRCMKEDGKGYWSDWSEEASGITYEDRPSKAPSFWYKIDPSHTQGYRTVQLVWKTLPPFEANGKILDYEVTLTRWKSHLQNYTVNATKLTVNLTNDRYLATLTVRNLVGKSDAAVLTIPACDFQATHPVMDLKAFPKDNMLWVEWTTPRESVKKYILEWCVLSDKAPCITDWQQEDGTVHRTYLRGNLAESKCYLITVTPVYADGPGSPESIKAYLKQAPPSKGPTVRTKKVGKNEAVLEWDQLPVDVQNGFIRNYTIFYRTIIGNETAVNVDSSHTEYTLSSLTSDTLYMVRMAAYTDEGGKDGPEFTFTTPKFAQGEIEAIVVPVCLAFLLTTLLGVLFCFNKRDLIKKHIWPNVPDPSKSHIAQWSPHTPPRHNFNSKDQMYSDGNFTDVSVVEIEANDKKPFPEDL

How the values were obtained:
oncostatin M = assay: Oncostatin M binding assay (phthalate oil separation, Scatchard) on transfected COS-7 cells; conditions: 125I-oncostatin M, compared with non-transfected COS-7 cells
From the text: Oncostatin M may be purified from cells in which the protein is naturally found, or from cells transformed with an expression vector encoding oncostatin M. One source of oncostatin M is phorbol ester-treated U937 cells, as described by Zarling et al., PNAS U.S.A. 83:9739 (1986). Purification of recombinant oncostatin M is described by Linsley et al., J. Biol. Chem. 264:4282-4289 (1989), which is hereby incorporated by reference in its entirety.
Oncostatin M may be radiolabeled using any suitable conventional procedure, such as the radioiodination procedure employed to radiolabel LIF in Example 1. The radio-iodination of oncostatin M has also been described by Linsley et al., supra.
The resulting radiolabeled oncostatin M may be substituted for radiolabeled LIF (using the same concentrations and other reaction parameters) in the assay procedures described in Example 1 in order to detect proteins and cells that bind oncostatin M. An assay for binding of ^125 I-oncostatin M to cells is also described in Linsley et al., supra.
COS-7 cells transfected with vector(s) encoding gp130 or LIF-R were assayed for the ability to bind oncostatin M. In separate transfections, COS-7 cells were transfected with the following combinations of vectors. […]

Recombinant human LIF = assay: LIF binding assay (phthalate oil separation, Scatchard) on transfected COS-7 cells
Description: Recombinant human LIF is expressed in yeast and purified to homogeneity essentially as described by Hopp, et al., Bio/Technology 6:1204 (1988). The purified protein is radiolabeled using a commercially available enzymobead radioiodination reagent (BioRad). In this procedure 10 μg LIF in 50 μl 0.2M sodium phosphate, pH 7.2, are combined with 50 μl enzymobead reagent, 2 mCi of sodium iodide in 20 μl of 0.05M sodium phosphate pH 7.0 and 10 μl of 2.5% β-D-glucose. After 10 minutes at 25° C., sodium azide (20 μl of 50 mM) and sodium metabisulfite (10 μl of 5 mg/ml) are added and incubation is continued for 5 min. at 25° C. The reaction mixture is fractionated by gel filtration on a 2 ml bed volume of Sephadex® G-25 (Sigma) equilibrated in Roswell Park Memorial Institute (RPMI) 1640 medium containing 2.5% (w/v) bovine serum albumin (BSA), 0.2% (w/v) sodium azide and 20 mM Hepes pH 7.4 (binding medium). […]
The cells were separated from unbound ^125 I-LIF by centrifugation for five minutes at 15,000×g in an Eppendorf microfuge. […] The radioactivity in both parts was then determined on a gamma counter. The determinations of both cell-bound and unbound radioactivity from the two 60 μl aliquots were averaged for subsequent calculations. […]

Molecule	binding of oncostatin M (oncostatin M)	binding of LIF after preincubation with oncostatin M (Recombinant human LIF; cells transfected with pHLIFR-65 and CAV, preincubated with non-radiolabeled oncostatin M (curve D))	binding of LIF (Recombinant human LIF; 125I-LIF, COS-7 cells, compared with non-transfected COS-7 cells)
B1	did not bind oncostatin M in any significant amount above that bound by the non-transfected COS-7 cells	essentially unchanged	
B2			did not bind LIF in any measurable amount above the amount of binding to the non-transfected COS-7 cells
